Molecular target: rabbit polyclonal antiserum against the BL172 synthetic peptide of SEQ ID NO: 20
Assay: competition Western blot; antiserum pre-incubated overnight at 4 C with varying concentrations of peptide immunogen

concentration of peptide at which antibody binding to the band was inhibited: 2.9 µM
Binder: TQTCGNCTFRVCFEQCCPWTFMVKLINQNCD [BL172 synthetic peptide of SEQ ID NO: 20]
